Results on 6 molecules are retold here after patent US20130224224A1 (Boehringer Ingelheim, published 2013).

The target in assay [1] is T1, human CX3CR1 (human, UniProt P49238 1-355).
T1 construct: overexpressed on CHO, BA/F3 or HEK293T cells; also called huCX3CR1; hCX3CR1
T1 sequence: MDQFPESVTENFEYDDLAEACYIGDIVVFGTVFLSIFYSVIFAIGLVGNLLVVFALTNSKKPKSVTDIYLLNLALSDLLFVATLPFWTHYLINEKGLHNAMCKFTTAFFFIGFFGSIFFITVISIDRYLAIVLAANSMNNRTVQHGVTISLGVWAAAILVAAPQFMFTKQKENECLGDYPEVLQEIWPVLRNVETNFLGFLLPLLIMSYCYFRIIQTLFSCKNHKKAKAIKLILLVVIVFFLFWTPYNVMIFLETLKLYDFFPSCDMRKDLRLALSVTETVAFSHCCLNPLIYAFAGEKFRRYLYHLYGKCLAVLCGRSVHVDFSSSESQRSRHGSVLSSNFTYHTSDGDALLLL
Briefly: competition FACS, BA/F3-huCX3CR1; competitor alexa647-labeled 66B02. An excerpt:
A competitive binding experiment was setup in order to determine whether the VHHs bind overlapping epitopes on CX3CR1. For this, the VHH 66B02 labeled with alexa647 was used in a competition FACS on the BA/F3 cells expressing huCX3CR1. Representative VHHs from the three functional families were used as competitors for the binding of the labeled 66B02.

In assay [2] the target is T1, human CX3CR1. Briefly: periplasmic extract, A647-fractalkine competition FACS, CHO-huCX3CR1. The method, boiled down: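 Periplasmic VHH extracts competed with Alexa647-fractalkine (EC30, 1 nM; 3 nM initially) for binding to live or frozen CHO cells overexpressing human CX3CR1, 1 h at 4 C. FACS read on intact, PI-negative cells; percent block derived using no-VHH, irrelevant-VHH and excess cold fractalkine controls.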

Assay [3] addresses T1, human CX3CR1. Briefly: cell-based or functional assay.
For assay [4], the target named is T1, human CX3CR1. The assay is described as follows: FACS binding on human CX3CR1 cells, anti-c-myc detection. As for the experimental part: Initially, a FACS based binding setup was used to evaluate the cynomolgus cross reactivity. For this, the VHHs were incubated with the respective cells for 30 minutes at 4° C. followed by three wash steps and subsequently incubated with the detection reagents. As detection, a mouse anti-cmyc antibody (Serotec, MCA2200) followed by a goat anti-mouse antibody coupled to PE (Jackson 115-116-071) was used, each incubation for 30 minutes at 4° C., followed by three wash steps.
For orientation: In flow cytometry, cells or beads pass a laser one at a time.

The target in assay [5] is T1, human CX3CR1. Briefly: A647-fractalkine competition FACS, CHO-huCX3CR1. From the text: (§1) Periplasmic extracts were screened in a human CX3CR1/human Fractalkine FACS competition assay to assess the blocking capacity of the expressed VHHs. Human CX3CR1 was presented on CHO cells overexpressing CX3CR1. Both a setup using cells harvested from an actively growing culture and a setup using frozen cells was used. As a detection reagent labeled fractalkine was used (R&D Systems, Minneapolis, Minn., USA) labeled with alexa647 (A647-Fractalkine) at a degree of labeling of 1. To setup the assay, first a titration series of the labeled fractalkine was performed on the CHO-huCX3CR1 cells in order to determine the EC50 value for binding. Initially screening was performed at a higher concentration of fractalkine (3 nM) to increase the assay robustness. To increase the sensitivity of the screening to a maximum, the EC30 concentration (1 nM) was chosen for subsequent screening. In brief 50 μl of periplasmic extract was added to 6 nM labeled fractalkine (50 μ;) and 200 000 CHO-huCX3CR1 cells. After one hour incubation at 4 C, cells were washed three times before read out was performed on a FACS Array (Becton Dickinson). First a gate was set on the intact cells as determined from the scatter profile. Next, dead cells were gated out by their fluorescence profile from the PI stain (Sigma, St Louis, US). The fluorescence profile from the alexa647 label was determined for each sample and used for calculation of blocking capacity. As controls, conditions were taken along where there was no VHH present in the peri extract or a known irrelevant VHH and samples were included where excess cold fractalkine was included. For each sample the percentage block was determined using the control samples to determine the assay window.
(§2) The blocking capacity towards the ligand fractalkine of the VHHs was evaluated in a human CX3CR1 competition FACS as outlined in Example 4. Either CHO-huCX3CR1 cells, BA/F3-huCX3CR1 cells or transiently transfected HEK293T cells were used. The amount of labeled ligand used in the different competition setups was also varied. The IC₅₀ values for VHHs blocking the interaction of human fractalkine to human CX3CR1 are depicted in Table 19.

In assay [6] the target is T1, human CX3CR1. The assay is described as follows: A647-fractalkine competition FACS, BA/F3-huCX3CR1.
Source text: as §1, §2

In assay [7] the target is T1, human CX3CR1. Briefly: A647-fractalkine competition FACS, HEK293-huCX3CR1.
Assay [8] addresses T2, cynomolgus CX3CR1 (cynomolgus, UniProt P49238 1-355 (human entry)).
T2 construct: transiently expressed on HEK293T cells; also called cyCX3CR1; cyno CX3CR1
T2 chain: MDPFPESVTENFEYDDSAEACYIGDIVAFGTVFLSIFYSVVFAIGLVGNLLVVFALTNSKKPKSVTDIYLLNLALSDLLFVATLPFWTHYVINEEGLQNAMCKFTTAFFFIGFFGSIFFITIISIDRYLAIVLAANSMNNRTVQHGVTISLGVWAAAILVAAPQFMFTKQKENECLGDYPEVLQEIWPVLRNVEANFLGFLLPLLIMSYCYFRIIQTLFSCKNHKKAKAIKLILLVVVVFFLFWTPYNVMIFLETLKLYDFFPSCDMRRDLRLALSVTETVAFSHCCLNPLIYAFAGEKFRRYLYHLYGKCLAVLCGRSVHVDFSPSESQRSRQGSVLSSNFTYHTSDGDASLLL
Briefly: A647-fractalkine competition FACS, HEK293T cynomolgus CX3CR1. As for the experimental part: (§3) For later identified VHHs, a human Fractalkine competition FACS was set up using human or cynomolgus CX3CR1 expressed in HEK293T cells. Both the human and the cynomolgus receptor was transiently transfected in HEK293T cells and transfections were matched by the binding of the labeled ligand, human fractalkine. The competition was evaluated using the EC30 concentration of fractalkine and as such obtained IC50 values are a good estimate of the Ki value, a measure for affinity (Table 22). The experiment was performed as described in Example 4. The ratio of the IC50 values on cynomolgus monkey and human CX3CR1 was used to evaluate potential differences in affinity for CX3CR1 in both species.
(§4) Also for the bivalent constructs the cross reactivity towards cynomolgus CX3CR1 was evaluated and compared with the human reactivity. As described earlier, either a binding setup (Table 27) or a ligand competition setup (Table 28) were applied using transient transfected HEK293T cells. Batches of transient transfected cells were matched by their receptor expression level.

Assay [9] concerns the target T2, cynomolgus CX3CR1. Briefly: A647-fractalkine competition FACS, cynomolgus against human CX3CR1. As for the experimental part:
as §3, §4

For assay [10], the target named is T1, human CX3CR1. The assay is described as follows: cell-based or functional assay. This is another data set of the same source.
Assay [11] addresses T1, human CX3CR1. Briefly: A647-fractalkine competition FACS, HEK293T human CX3CR1. As for the experimental part:
as §3, §4

Numbering of substitutions follows the chain as printed. Read-outs that look alike come from different tables or passages of the source.

B1: CX3CR1BIIPMP11H11 (VHH)
VHH: EVQLVESGGGLVQAGGSLRLSCVASGRTFSSYAMGWFRQAPGKERAFVAGISGSASRKYYADSVKGRFTVSRDNARNTVYLQMNSLKPEDTAVYYCAASNSYPKVQFDYYGQGTQVTVSS
notes: family 9; also called CX3CR1BII11H11; not shown: C-terminal c-myc and His6 tags
One may read the IC50 as the midpoint of a concentration-inhibition curve. A low value points to greater potency. As usually defined, the EC50 is the concentration giving half of the maximal effect. Read a low EC50 as higher potency in that assay. With B1, the “% block” value with human CX3CR1 [1] stood at 100%; with human CX3CR1 [2], 99%; in the assay with human CX3CR1 [5] it was 100%; with human CX3CR1 [6] it was 100%. In addition, the IC50 is 4.9 nM with human CX3CR1 [1], 17 nM with human CX3CR1 [5] and 8.1 nM with human CX3CR1 [6]. In addition, in the assay with human CX3CR1 [3], the “% block, fractalkine induced chemotaxis” value came to 89%. In addition, the “IC50, fractalkine induced chemotaxis” value in the assay with human CX3CR1 [3] was 200 nM. The same molecule displayed an EC50 in the assay with human CX3CR1 [4] of 0.8 nM.

B2: CX3CR1BII016 (VHH)
chain: EVQLVESGGGSVQAGESLRLSCAASGSIFSSNAMAWYRQAPGKQRDLVAVINSVGITKYADSVKGRFTISGDNAKNTVYLQMNSLKPEDTAVYYCTSDARRGWDTRYWGQGTQVTVSSGGGGSGGGGSGGGGSGGGGSGGGGSGGGGSGGGGSEVQLVESGGGSVQAGESLRLSCAASGSIFSSNAMAWYRQAPGKQRDLVAVINSVGITKYADSVKGRFTISGDNAKNTVYLQMNSLKPEDTAVYYCTSDARRGWDTRYWGQGTQVTVSS
notes: expressed in E. coli as described for the monovalent VHHs
As for B2, in the assay with human CX3CR1 [7], the “% block” value is 102% and the IC50 turned out to be 0.19 nM. Further, in the assay with cynomolgus CX3CR1 [8], the “% block” value was 98% and the IC50 turned out to be 0.69 nM. Also, in the assay with cynomolgus CX3CR1 [9], the “ratio (cynomolgus/human IC50)” value amounted to 3.67. Besides, in the assay with human CX3CR1 [10], the “% block, fractalkine induced chemotaxis” value worked out at 88% and the “IC50, fractalkine induced chemotaxis” value was determined as 2 nM. Further, in the assay with human CX3CR1 [11], the “% block” value came to 102% and the IC50 came to 0.19 nM.

B3: CX3CR1BII020 (VHH)
chain: B2 chain with V50G, G71R, V78A, A99P, Q113L, V203G, G224R, V231A, A252P, Q266L
notes: as for B2
For the molecule B3, in the assay with human CX3CR1 [7], the “% block” value was determined as 102% and the concentration for half-maximal inhibition (IC50) came to 0.22 nM. Also, in the assay with cynomolgus CX3CR1 [8], the “% block” value amounted to 97% and the IC50 turned out to be 0.32 nM. Besides, in the assay with cynomolgus CX3CR1 [9], the “ratio (cynomolgus/human IC50)” value was determined as 1.47. For the same molecule, in the assay with human CX3CR1 [10], the “% block, fractalkine induced chemotaxis” value worked out at 85% and the “IC50, fractalkine induced chemotaxis” value amounted to 2 nM. For the same molecule, in the assay with human CX3CR1 [11], the “% block” value amounted to 102% and the IC50 was 0.22 nM.

B4: CX3CR1BII019 (VHH)
chain: B2 chain with V2M, V50L, G71R, A99G, V155M, V203L, G224R, A252G
notes: as for B2
With B4, in the assay with human CX3CR1 [7], the “% block” value is 100% and the IC50 is 0.29 nM. In addition, in the assay with cynomolgus CX3CR1 [8], the “% block” value was found to be 96% and the half-maximal inhibitory concentration (IC50) amounted to 0.82 nM. Also, the “ratio (cynomolgus/human IC50)” value in the assay with cynomolgus CX3CR1 [9] was determined as 2.86. In the assay with human CX3CR1 [10], the “% block, fractalkine induced chemotaxis” value was found to be 85% and the “IC50, fractalkine induced chemotaxis” value came to 2 nM. In the assay with human CX3CR1 [11], the “% block” value is 100% and the concentration for half-maximal inhibition (IC50) stood at 0.29 nM.

B5: CX3CR1BII018 (VHH)
chain: B2 chain with Q44R, V50A, I56V, G71R, A99P, Q197R, V203A, I209V, G224R, A252P
modifications: A647 label where used as labeled competitor (Example 14)
notes: expressed in E. coli as described for the monovalent VHHs; also called A647-018; A647 labeled CX3CR1BII018
For B5, the “% block” value was 102% with human CX3CR1 [7], 97% with cynomolgus CX3CR1 [8] and 102% with human CX3CR1 [11]. Moreover, the IC50 turned out to be 0.3 nM in the assay with human CX3CR1 [7], 0.1 nM in the assay with cynomolgus CX3CR1 [8] and 0.03 nM in the assay with human CX3CR1 [11]. Further, in the assay with cynomolgus CX3CR1 [9], the “ratio (cynomolgus/human IC50)” value was determined as 3.33. Moreover, the “% block, fractalkine induced chemotaxis” value in the assay with human CX3CR1 [10] came to 98%. Also, in the assay with human CX3CR1 [10], the “IC50, fractalkine induced chemotaxis” value was determined as 0.6 nM.

B6: CX3CR1BII017 (VHH)
chain: EVQLVESGGGSVQAGESLRLSCAASGSIFSSNAMAWYRQAPPGKQRDLVALINSVGITKYADSVKGRFTISSDNAKNTVYLEMNSLKPEDTAVYYCTSDGRRGWDTRYWGQGTQVTVSSGGGGSGGGGSGGGGSGGGGSGGGGSGGGGSGGGGSEVQLVESGGGSVQAGESLRLSCAASGSIFSSNAMAWYRQAPPGKQRDLVALINSVGITKYADSVKGRFTISSDNAKNTVYLEMNSLKPEDTAVYYCTSDGRRGWDTRYWGQGTQVTVSS
notes: as for B2
On to B6, for which, in the assay with human CX3CR1 [7], the “% block” value worked out at 99% and the IC50 turned out to be 0.31 nM. Moreover, in the assay with cynomolgus CX3CR1 [8], the “% block” value came to 95% and the concentration for half-maximal inhibition (IC50) came out at 1.6 nM. In the assay with cynomolgus CX3CR1 [9], the “ratio (cynomolgus/human IC50)” value is 5.34. Besides, in the assay with human CX3CR1 [10], the “% block, fractalkine induced chemotaxis” value was found to be 89% and the “IC50, fractalkine induced chemotaxis” value is 3 nM. Further, in the assay with human CX3CR1 [11], the “% block” value came out at 99% and the concentration for half-maximal inhibition (IC50) is 0.31 nM.
